The results in this text go back to the supplement of paper PMC9170038.

This data set has as its system MS2 coat protein. As to the kind of experiment: apparent KD of MS2 coat protein; designed switch direction (-1 OFF switch, 1 ON switch): -1; higher = weaker reporter binding. In outline: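 The apparent KD reported per design is the median over clusters of curve fits to normalised cluster fluorescence. The RNA switches were transcribed on Illumina chips by stalled E. coli RNA polymerase. SNAP-549-labelled MS2 coat protein was titrated from 0.7 or 1.5 nM, doubling up to 3 µM, in Tris-HCl pH 7.5 buffer containing KCl, MgCl2, BSA, DTT, tRNA and Tween-20, with no input, 200 uM small-molecule ligand, or an oligonucleotide input.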

[1] abbreviates: Eterna round: R95, input ligand: FMN 200 uM.
Where [2] appears, read: Eterna round: R95, input ligand: microRNA oligo, concentration not stated.
[3] abbreviates: Eterna round: R95, input ligand: none.
Setting [4] is: input ligand: microRNA oligo, concentration not stated.

On to “UAUAAAAUAUAGGAUAUCGAAUAUAUUAUUUAACGAGAAGGAUGAACAUGAGGAUCACCCAUGUGGUAUCAUGG [Mat - Exclusion 6 - JL Mod - D37] (puzzle: Exclusion 6)”, for which the “apparent KD of MS2 coat protein” value came out at 199 nM under setting [1], 255 nM under setting [2] and 415 nM under setting [3].

As for “CUGAGGUAGCGGUCCUAUGACAUGAGGAUCACCCAUGUACCUUGCUUUGAGCUAAUUGCUCGUCUUAUGAUUCUCGG [Mat - Sensor v3 - turn-off var 1 - JL Mod - D45] (puzzle: Sensor v3, turn-off variant 1)”, the “apparent KD of MS2 coat protein” value under setting [1] was found to be 500 nM, the “apparent KD of MS2 coat protein” value under setting [2] is 457 nM and the “apparent KD of MS2 coat protein” value under setting [3] worked out at 479 nM.

Take “CUGCUCCGUGUAGGAUAUCCGCGCAACCAACGCGGAGAAGGACAUGAGGAUCACCCAUGUAUGUUAUUAUCACGUGAAGCGUCC [Design 29] (Eterna round: R96, puzzle: Exclusion NG 1)”: the “apparent KD of MS2 coat protein” value worked out at 32.5 nM (input ligand: FMN 200 uM), 15.5 nM under setting [4] and 28.1 nM (input ligand: none).

For “UAAUUUUUAGUAAGGAUAUCGGUCCCAAGGGACAACGAGAAGGUACAUGAGGAUCACCCAUGUGAAAUAAGAAU [Mod of Zala 4 - Jieux - Brourd's Mod of Exclusion 4] (Eterna round: R97, puzzle: Brourd's mod of Exclusion 4)”, the “apparent KD of MS2 coat protein” value (input ligand: FMN 200 uM) is 27.9 nM and the “apparent KD of MS2 coat protein” value (input ligand: none) was 17.3 nM.

Take “GGGUAGUGAGGAUAUCUUGGCAAACCCGAACCUGUCAGCCAAGAGAAGGCACUUGAGGAUCACCCAAGUACAGG [Raeratti] (Eterna round: R97, puzzle: Exclusion 4)”: the “apparent KD of MS2 coat protein” value is 88.7 nM (input ligand: FMN 200 uM) and 26.8 nM (input ligand: none).

For “GAGGUGUAAGGAUAUAGCUAUAGGCUAACCGGGACCCAUAGCUAGAAGGUACAUGAGGAUCACCCAUGUUUGCU [Eternabot (L1) Solution 99] (Eterna round: R97, puzzle: Exclusion 4)”, the “apparent KD of MS2 coat protein” value by setting is: (input ligand: FMN 200 uM) 34.9 nM; (input ligand: none) 22.6 nM.

As to “AGGUAGUCAGGAUAUUAAGAGUAGCGGGAUAACGCUACGAGUGAGAAGGGACAUGAGGAUCACCCAUGUUUAUU [JR_Ex4_Sub070] (Eterna round: R97, puzzle: Exclusion 4)”, the “apparent KD of MS2 coat protein” value stood at 23 nM (input ligand: FMN 200 uM) and 24.8 nM (input ligand: none).

On to “AGAGUAAUGCGAGGAUAUACAUGAGGAUCACCCAUGUGGUGGUGUGAGGCAAAGCCUCACACCAUGUAGAAGGCGCAUUACUCA [Mat - Exclusion NG 2 - Mod of JL - D21] (Eterna round: R96, puzzle: Exclusion NG 2)”, for which the “apparent KD of MS2 coat protein” value is, setting by setting: (input ligand: FMN 200 uM) 155 nM; under setting [4], 35.2 nM; (input ligand: none) 39.3 nM.

Take “ACAAGCUUUUUGCAUGUUAGUUUUGUUGCUUCGUAUGUAACAUGAGGAUCACCCAUGUAAGACUGAUGUCGUCGUUU [JR_SV3TOV2_Sub088] (puzzle: Sensor v3, turn-off variant 2)”: the “apparent KD of MS2 coat protein” value under setting [1] is 44.9 nM, the “apparent KD of MS2 coat protein” value under setting [2] stood at 47.8 nM and the “apparent KD of MS2 coat protein” value under setting [3] was found to be 61.6 nM.

Turning to “CCCGGGUCUGCAGGAUAUUCGAAAGCAGGUCAAAGGUCACAUGAGGAUCACCCAUGUAGUUUAACGAAGAAGGGUGUCGCCCGU [Eternabot solution 38] (Eterna round: R96, puzzle: Exclusion NG 2)”, the “apparent KD of MS2 coat protein” value (input ligand: FMN 200 uM) amounted to 168 nM, the “apparent KD of MS2 coat protein” value under setting [4] amounted to 76.7 nM and the “apparent KD of MS2 coat protein” value (input ligand: none) was determined as 162 nM.

Turning to “UACAUGAGGAUCACCCAUGUUUUGUCGUGUAUGGUAUUUAUCUAGGAUAUCAAUUUAGUUAUUUAUGAGAAGGAGAAUAUUAAU [JMF's solution 18] (Eterna round: R96, puzzle: Exclusion NG 3)”, the “apparent KD of MS2 coat protein” value is, setting by setting: (input ligand: FMN 200 uM) 33.6 nM; under setting [4], 32.8 nM; (input ligand: none) 43.1 nM.

“ACAUGAGGAUCACCCAUGUUUUUUGGGUACUCUUGAUACAGCAAGGAUAUGCAUUAUUUAUGUACGCAGAAGGUGCAUUACGUC [JR_ExcNG3_Sub063] (Eterna round: R96, puzzle: Exclusion NG 3)”: under setting [4], the “apparent KD of MS2 coat protein” value amounted to 837 nM.

“GUUUAGUGAGGAUAUGUGGCUUCGAUCGUGAGAUCGAGGCUACAGAAGGCACAUGAGGAUCACCCAUGUUCCUA [salish99_ex4_r4_107] (Eterna round: R97, puzzle: Exclusion 4)”: the “apparent KD of MS2 coat protein” value by setting is: (input ligand: FMN 200 uM) 87.7 nM; (input ligand: none) 16.5 nM.

“GAAAAGAUAGGAUAUACAAGAAGAAAAGAAAAGAAAAGAAAACAUGAGGAUCACCCAUGUAGAAGGAUCAAAAG [Default title] (puzzle: Exclusion 2)”: the “apparent KD of MS2 coat protein” value was 15 nM under setting [1], 13.5 nM under setting [2] and 15.5 nM under setting [3].

As to “UCGCUCCGUGUAGGAUAUCGCUGUAUGAUGCGGCGAGAAGGACAUGAGGAUCACCCAUGUAUGUUAUUAUCACGCGUGGCGCAA [Design 64] (Eterna round: R96, puzzle: Exclusion NG 1)”, the “apparent KD of MS2 coat protein” value is, setting by setting: (input ligand: FMN 200 uM) 21.8 nM; under setting [4], 11.6 nM; (input ligand: none) 17.5 nM.

For “GUUUCACAUGAGGAUCACCCAUGUGAGGAUAUGCAUUUGUUAACCGUAGUUAAUAGAUGCAGAAGGCGCGUGAU [JRxlusion 5 - Jieux - Exclusion 1] (Eterna round: R97, puzzle: Exclusion 1)”, the “apparent KD of MS2 coat protein” value by setting is: (input ligand: FMN 200 uM) 69.8 nM; (input ligand: none) 65 nM.

Consider “UAUUAUUGCAAGGAUAUGCUUUUUAUUUCUUUUGCAGAAGGUGCAACAUGAGGAUCACCCAUGUUUCCGGGUAU [JR_E6_Sub033] (puzzle: Exclusion 6)”, for which, under setting [2], the “apparent KD of MS2 coat protein” value was determined as 20.4 nM.

Regarding “GCUGGUCGAGGAUAUGCAUAUACUGGAUACAGUGGAAGGUCACAUGAGGAUCACCCAUGUAGAAGGCGACCAGC [EX2 #36] (Eterna round: R97, puzzle: Exclusion 2)”, the “apparent KD of MS2 coat protein” value is, setting by setting: (input ligand: FMN 200 uM) 634 nM; (input ligand: none) 527 nM.

Turning to “UACAUGAGGAUCACCCAUGUUUUGUCGUGUAUGGUAUUUAUCUAGGAUAUCAAUUGAUUAAUUUAUGAGAAGGAGAAUAUUAAU [JMF's solution 60] (Eterna round: R96, puzzle: Exclusion NG 3)”, the “apparent KD of MS2 coat protein” value reads like this: (input ligand: FMN 200 uM) 39.9 nM; under setting [4], 39.1 nM; (input ligand: none) 34.4 nM.

Take “AUCCUUAACAAGGAUAUCGGGCGGGAAAUUGUUUGAGAAGGUGUAACAUGAGGAUCACCCAUGUAAAAUAUGAA [-14.9, -13.5 kcal, A 36%] (Eterna round: R97, puzzle: Exclusion 6)”: the “apparent KD of MS2 coat protein” value (input ligand: FMN 200 uM) stood at 21.7 nM and the “apparent KD of MS2 coat protein” value (input ligand: none) amounted to 31.2 nM.

With “GAUCAACAUGAGGAUCACCCAUGUGAGGAUAUGAUACUAUGUACUUCGGUACAUAGUAUCAGAAGGCACUAGGA [Ex1-3: 40] (puzzle: Exclusion 1)”, under setting [2], the “apparent KD of MS2 coat protein” value came to 64 nM.

For the sequence “CCAAACUGAGGAUAUACAUGAGGAUCACCCAUGUGCCCGCGGUCAUAUGUAGCCUAGUGUAGAAGGCAGAAAAC [Rearle] (puzzle: Exclusion 3)”, the “apparent KD of MS2 coat protein” value under setting [2] was found to be 33 nM.

As for “CCGAAACAUGAGGAUCACCCAUGUGAGGAUAUGAGCGUCUAGUUGAGAGAUUGGACGCUCAGAAGGCACAUUGG [JR_Ex1_Sub075] (Eterna round: R97, puzzle: Exclusion 1)”, the “apparent KD of MS2 coat protein” value is, setting by setting: (input ligand: FMN 200 uM) 76.7 nM; (input ligand: none) 121 nM.

With “AGUUGGCGAGGAUAUACAUGAGGAUCACCCAUGUGAAAGAGAAGAGUGAGGAAGAAAAGUAGAAGGCGCUGACA [Mat - Exclusion 3 - Mod of Salish D39] (puzzle: Exclusion 3)”, the “apparent KD of MS2 coat protein” value reads like this: under setting [1], 135 nM; under setting [2], 69.3 nM; under setting [3], 75.2 nM.

On to “UAUUUAUAUGAAGGAUAUACUUAACAUGAGGAUCACCCAUGUGGUGUUGUGAGUGAGUGAGUUUAGUAGAAGGUCAAUGAUUUU [JMF's solution 74] (Eterna round: R96, puzzle: Exclusion NG 2)”, for which the “apparent KD of MS2 coat protein” value runs as follows: (input ligand: FMN 200 uM) 870 nM; under setting [4], 286 nM; (input ligand: none) 311 nM.

For “AAUAACAGAGGAUAUACUGUUUUAUGUGUUUGUUGUUUUGAACAUGAGGAUCACCCAUGUAGAAGGCUGAUUAA [JMF 53] (puzzle: Exclusion 2)”, under setting [2], the “apparent KD of MS2 coat protein” value was found to be 31.6 nM.

For the sequence “CGGAUACAUGAGGAUCACCCAUGUGAGGAUAUCGUACGUUCGUCGAAAGACGAUCGUACGAGAAGGCAUGACCG [Eli x1 4.36] (Eterna round: R97, puzzle: Exclusion 1)”, the “apparent KD of MS2 coat protein” value runs as follows: (input ligand: FMN 200 uM) 64 nM; (input ligand: none) 113 nM.

In the case of “AAAAAACAUGAGGAUCACCCAUGUGAGGAUAUGAUGCGAAUAAAGAAAGAAGAAAGCAUCAGAAGGCACAUAUG [Mod of Disincluded 3 (little more stable fmn state)] (Eterna round: R96, puzzle: Exclusion 1)”, under setting [4], the “apparent KD of MS2 coat protein” value came out at 66.6 nM.

Consider “AACCUAAGGCAAAGCUUUAGGUGUACAUGAGGAUCACCCAUGUAGGAUAUGGUAGGCAAAGCUUACCAGAAGGACAUUAUGAUA [Mat - Exclusion NG 3 - Mod of JL - D53] (Eterna round: R96, puzzle: Exclusion NG 3)”, for which the “apparent KD of MS2 coat protein” value by setting is: (input ligand: FMN 200 uM) 82.1 nM; under setting [4], 27.5 nM; (input ligand: none) 55.2 nM.

Turning to “AGGUGCUUCAGGAGACAUGAGGAUCACCCAUGUUGAGUUAGCGAGGAUAUCGGUAACCCUUGUGAUGAGAAGGCGCAAACCAGU [Ex NG3 #45] (Eterna round: R96, puzzle: Exclusion NG 3)”, the “apparent KD of MS2 coat protein” value came to 39.5 nM (input ligand: FMN 200 uM), 14.4 nM under setting [4] and 29.1 nM (input ligand: none).
